Data as given in patent publication US20050074840A1.

What follows are substances tested against human TNF-alpha (hTNF-alpha) (human) (UniProt P01375) (assay: saturation binding of [125I]TNF-alpha on yeast).

| Kd [nM] | Substance |
| --- | --- |
| 1.71 | mutant clone 6 TNFrED-agglutinin fusion (H34P + S57I) displayed on yeast (from UniProt P20840 330-650) |
| 1.31 | mutant clone 11 TNFrED-agglutinin fusion (S87P) displayed on yeast (from UniProt P20840 330-650) |
| 2.04 | wild-type TNFrED-agglutinin fusion displayed on the surface of S. cerevisiae BJ2168 (from UniProt P20840 330-650) |
